B1: DVL3 (parent)
chain: SDVVDWLYHNVEGFTDRREARKYA
B2: GMCL1 (parent)
chain: FCYCAGSHKRKRSSGSFCYCHPDS

Variants of: B1
Experiment: protein stability index of a GFP-peptide fusion (GPS, HEK-293T) (PSI 1-6); higher = more stable
Conditions: c terminus: a fixed tail appended
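Also: lentivirally expressed fusions sorted by FACS into six bins by GFP to DsRed ratio, PSI derived from sequencing read proportions per bin multiplied by bin number.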

Protein stability index of substitutions, site by site:
D5: I 1.82; T 2.75; P 3.71; W 1.7; Q 3.23; H 2.44; A 1.98; Y 2.53; L 1.41; M 2.87; F 2.21; G 3.06; E 3.6; V 1.19; K 2.36; C 1.84; S 2.5; N 2.07
W6: F 2.9; G 4.32; A 4.58; E 4.97; I 4.13; L 4.35; D 4.75; C 3.81; H 4.21; K 4.38
V3: Y 3; W 2.04; L 3.15; H 3.39; Q 4.64; N 4.22; E 5.17; C 3.69; S 3.44; P 4.24; T 4.13; I 2.98; M 3.85; R 3.95; A 3.98; F 2.07; D 4.59
S1: I 2; R 2.52; K 2; C 2.71; T 3.1; F 2.23; Q 2.9; N 3.42; P 2.15; H 3.27; L 3.51; D 3.92; E 3.76; V 3.5; G 3.78
V4: A 3.09; R 3.84; C 2.77; Q 3.67; D 3.78; T 3.6; L 2.98; S 3.68; W 2.44; I 2.56; P 3.81; G 3.84; F 3.53; E 4.08; Y 3.21; K 3.46; H 3.52; N 3.89; M 3.76
D2: T 2.9; R 2.23; F 1.9; W 1.64; P 2.62; G 2.89; Y 2.26; E 3.01; C 2.16; V 2.72; H 2.91; S 2.74; N 3.36; K 2.73; M 2.09; L 2.12; A 1.85; I 2.46

Variants of: B2
Experiment: as above
Conditions: c terminus: a fixed tail appended

Protein stability index: each site, then its substitutions
S14: M 2.04; A 2.2; Q 1.89; H 2.79; P 1.93; Y 2.07; L 2.6; F 2.35; I 1.64; N 2.37; W 2.03; G 1.89; E 1.87; C 1.86; R 2.02; V 1.89; T 1.46; K 1.61; D 2.18
C18: Y 1.14; Q 2.63; L 2.4; A 2.74; I 2.27; S 2.65; H 1.77; E 2.74; R 1.63; V 1.83; N 2.2; M 2.11; W 2.99; G 2.18; D 1.87; K 1.95; T 1.79; P 2.1
S16: R 1.59; C 1.91; A 2.33; E 3.31; W 2.06; I 2.49; H 2; K 3.24; Q 1.69; L 1.26; F 2.41; Y 2.14; D 1.88; V 2.16; T 2.29; N 1.36; M 2.44; P 1.36
D23: E 2.13; Q 2.34; L 1.98; K 2.42; R 1.99; N 1.92; G 2.27; C 1.28; V 1.44; A 1.35; F 2.06; T 3.04; I 1.83; M 2.39; H 1.88; S 1.94; W 2.16; Y 2.06; P 2.86
P22: V 1.96; L 1.63; G 2.44; I 1.47; Q 1.91; R 2.1; S 2.53; N 2.69; T 1.32; M 1.85; A 2.64; D 2.78; H 2.29; C 2.12; W 2.27; K 2.09; E 2.01; F 1.38; Y 2.02
G15: Y 2.56; T 1.96; P 1.6; R 1.62; H 2.07; W 2.26; E 2.67; N 2.81; D 2.25; F 1.8; K 1.72; S 2.17; L 3.16; A 1.61; I 2.41; M 1.21; V 2.6; C 1.5
R12: P 2.44; K 1.97; V 1.89; I 1.75; N 2.01; S 1.74; Q 2.33; T 2.43; L 1.63; W 2.9; M 1.54; Y 2.56
Y19: I 2.52; A 3.72; R 3.17; L 1.96; Q 3.03; T 3.6; D 2.9; K 3.4; S 3.31; M 3; V 3.03; G 2.52; P 3.37; C 2.86; W 1.28; F 2.31; H 2.67; N 3.38; E 3.63
H21: I 2.69; G 2.55; A 2.41; V 2.51; F 2.51; W 1.63; Q 2.74; C 1.11; N 2.43; D 2.47; S 2.87; E 2.73; M 3.12; R 2.54; Y 2.43; T 2.47; K 3.17; P 2.21; L 2.88
F17: N 2.06; K 2.17; H 2.46; P 2.98; I 2.05; E 3.01; Q 2.61; G 2.19; L 2.3; T 2.27; A 2.11; S 1.78; C 3.2; R 2.53; V 2.04; M 2.15; Y 2.25; D 2.84; W 1.9
S24: Y 1.84; G 2.46; I 2.03; D 1.87; E 2.51; Q 2.9; K 2.44; V 2.12; T 2.02; L 1.91; C 1.51; M 1.78; N 2.12; F 1.61; P 1.88; W 1.38; A 1.94; R 2.28; H 2.09
S13: E 2.02; W 1.84; K 1.96; A 1.95; P 2.67; I 1.88; Y 1.7; Q 1.7; F 2.24; H 2.21; V 1.86; R 1.85; G 1.56; L 2.5; M 2.04; N 1.64; C 2.17; T 2.11; D 2.74
C20: Y 1.71; V 1.91; M 2.3; E 1.88; S 1.5; H 2; Q 1.5; N 1.99; W 1.95; D 2.73; R 1.68; P 1.94; L 2.18; F 1.84; K 1.58; A 2.01; T 1.98; G 1.99; I 2.06
